Measurements: the supplement of paper PMC10724198
± gives the standard deviation of the averaged measurements.

test system: Saccharomyces cerevisiae; assay: protein stability index of tFT-peptide fusion (C-terminal peptide) (PSI (0-1 scale)); higher = more stable (slower turnover); conditions: genetic background: wild type; temperature: 30 C
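Also: PSI is a weighted mean of sequencing reads over stability bins, variants kept only with over 10 reads, mCherry proximal and sfGFP distal, peptide attached via GGGS linker.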

YHIGSINLTVRQ and VVGKKQTGEKEK are within error of each other in protein stability index: 0.778 ± 0.083 for the first, 0.725 ± 0.048 for the second.

Compared with GSGTRNLLFIKS, CDRVAQWTYPDA is higher in protein stability index: 0.6708 ± 0.001 for the first, 0.783 ± 0.084 for the second.

PLCVPPRRLFPP and PPLPRPHHPYRR are within error of each other in protein stability index: 0.716 ± 0.072 for the first, 0.708 ± 0.025 for the second.

First: PPPHPPPPLPPP
Second: EVVCLGKTTLKR
The protein stability index of the first is lower: 0.617 ± 0.01 for the first, 0.692 ± 0.041 for the second.

First: SLVWVGGRRWPI
Second: RCQYRRTMSITI
The protein stability index of the first is higher: 0.73 ± 0.023 for the first, 0.635 ± 0.034 for the second.

Compared with NKIKTSRKKNNQ, PPASLRRLLPPP is lower in protein stability index: 0.723 ± 0.017 for the first, 0.654 ± 0.0066 for the second.

Compared with PPPPGSKPPPSP, SFFSVQIQFGLS is lower in protein stability index: 0.722 ± 0.028 for the first, 0.617 ± 0.012 for the second.

PPPSPPLPIPPS and LGRRHAYGSALS are within error of each other in protein stability index: 0.697 ± 0.022 for the first, 0.708 ± 0.12 for the second.

SLGWGRVNVCGV and AGCLSGPVDILL are within error of each other in protein stability index: 0.666 ± 0.0031 for the first, 0.703 ± 0.046 for the second.

Compared with LPPPPPPPPSTP, PPPVPPPSPPPT is lower in protein stability index: 0.734 ± 0.0076 for the first, 0.641 ± 0.07 for the second.

GGLGGVRAGREG and PPLPPRPAPIPP are within error of each other in protein stability index: 0.711 ± 0.02 for the first, 0.663 ± 0.033 for the second.

Compared with EDKETETSVNQK, GACDGEGGSRVR is lower in protein stability index: 0.6758 ± 0.0059 for the first, 0.611 ± 0.0075 for the second.

TLKPTHAPSPPP and PPTPPLPPRLPP are within error of each other in protein stability index: 0.672 ± 0.021 for the first, 0.686 ± 0.0098 for the second.

First: LICVSTLAPSGQ
Second: MWYCGVSGPGNG
The protein stability index of the first is lower: 0.676 ± 0.0078 for the first, 0.6859 ± 0.0013 for the second.

FPPLLFSSPPLP and IPPPVLPSPPSP are within error of each other in protein stability index: 0.683 ± 0.018 for the first, 0.672 ± 0.1 for the second.

GDGQETEKNNAE and VICRGGHVLLES are within error of each other in protein stability index: 0.604 ± 0.046 for the first, 0.72 ± 0.098 for the second.

EGGVERIHKPSS and APPPPLPAPQLR are within error of each other in protein stability index: 0.654 ± 0.061 for the first, 0.6186 ± 0.0011 for the second.

PRCPSTPQPEHH and RRTDHQRAVREI are within error of each other in protein stability index: 0.739 ± 0.027 for the first, 0.731 ± 0.042 for the second.

Compared with VCRGWGVCGEWG, CPPLSPPLLLLL is higher in protein stability index: 0.6243 ± 0.0025 for the first, 0.667 ± 0.017 for the second.

PTRPPSLPRIPP and ASFSLSPFLPFS are within error of each other in protein stability index: 0.669 ± 0.028 for the first, 0.6854 ± 0.0068 for the second.

FAVLGGGVGGGW and SPTPPPPSPLAP are within error of each other in protein stability index: 0.7077 ± 0.0032 for the first, 0.726 ± 0.059 for the second.

VVAVTTIDSTHL and PPPHPHPFSLAL are within error of each other in protein stability index: 0.682 ± 0.033 for the first, 0.691 ± 0.017 for the second.

Going from VFSLQCVSGIFV to KTRTGMWDEQGV, the protein stability index rises from 0.568 ± 0.076 to 0.701 ± 0.016.

AGSSSLRGRLRG and CCLFCLLWSLLY are within error of each other in protein stability index: 0.69 ± 0.068 for the first, 0.64 ± 0.0067 for the second.

Going from SWFTHTQSVRCS to RLGDALCFSFTV, the protein stability index rises from 0.515 ± 0.014 to 0.644 ± 0.032.

NRGYRKDDKGMR and HPTLPLLSHPTS are within error of each other in protein stability index: 0.689 ± 0.042 for the first, 0.798 ± 0.14 for the second.

Compared with YLIGRIIYFFGR, LVDSSLTESLDV is higher in protein stability index: 0.582 ± 0.0021 for the first, 0.645 ± 0.034 for the second.

PYQPSPFRLAAG and LSFSPSFLPDSP are within error of each other in protein stability index: 0.67 ± 0.1 for the first, 0.782 ± 0.062 for the second.

HRCVQFMNWVAF and PLSTHNSLPRVK are within error of each other in protein stability index: 0.735 ± 0.045 for the first, 0.691 ± 0.061 for the second.

CLAIWSNLNECH and FIKRINSYTGWI are within error of each other in protein stability index: 0.715 ± 0.034 for the first, 0.663 ± 0.062 for the second.

SPPSPRLPPPLL and VRRARATLYSWL are within error of each other in protein stability index: 0.77 ± 0.046 for the first, 0.693 ± 0.052 for the second.

First: IFINAGGYTHTN
Second: SVVSWRGRNRSV
The protein stability index of the first is lower: 0.726 ± 0.067 for the first, 0.864 ± 0.065 for the second.

LHEHHSFCFRLL and HPARPRPRLALS are within error of each other in protein stability index: 0.658 ± 0.1 for the first, 0.666 ± 0.043 for the second.

PPPPHPPFPPRF and VGACGEYGGFFR are within error of each other in protein stability index: 0.722 ± 0.047 for the first, 0.67 ± 0.035 for the second.

PPPPRPPPPATL and EGTIDSGRHSLK are within error of each other in protein stability index: 0.662 ± 0.02 for the first, 0.752 ± 0.15 for the second.

Going from PPPLPPRMPPPF to ALLLTLTCGLFF, the protein stability index falls from 0.72 ± 0.036 to 0.521 ± 0.019.

IPTVSLLHLPPV and PPSPPPPPRFLP are within error of each other in protein stability index: 0.699 ± 0.047 for the first, 0.662 ± 0.041 for the second.

KKMKKASTAKEL and QVDVLVCKLEVP are within error of each other in protein stability index: 0.678 ± 0.025 for the first, 0.672 ± 0.11 for the second.

PAPPPRPLPSPP and FLQRSLTNMNSL are within error of each other in protein stability index: 0.713 ± 0.2 for the first, 0.671 ± 0.00095 for the second.

First: SPRSLLTPHPHM
Second: LPRAPPPPPLLL
The protein stability index of the first is lower: 0.686 ± 0.041 for the first, 0.757 ± 0.0076 for the second.

In the case of FGVTLGYFSSVE, the protein stability index is reported as 0.656 ± 0.017.
